Legend:
Format in all cases: biochemical
[1] = HTP-analysis of yeast culture supernatants, no challenge (MUGal hydrolysis); conditions: activity of the variant/activity of WT GLA (SEQ ID NO: 5), yeast supernatant
Outline: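 Activity read as 4-methylumbelliferyl α-D-galactopyranoside hydrolysis: fluorescence (355/448 nm) after sodium carbonate stop, following 30-180 min at 37° C with 2 mM MUGal stock at pH 4.6–4.8. Enzyme source is unchallenged culture supernatant of INVSc1 yeast expressing GLA variants, grown 66-84 h at 30° C.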

[2] = HTP-analysis of supernatants pretreated with base (MUGal hydrolysis); conditions: challenge at pH 7.1; activity of the variant/activity of WT GLA (SEQ ID NO: 5); yeast supernatant
Outline: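 Fluorescence of released 4-MU (Ex 355 nm, Em 448 nm) after carbonate quench reports MUGal hydrolysis by GLA variants secreted from INVSc1 yeast. Before the acidic (pH 4.3-4.8) 30-180 min reaction at 37° C, supernatants had been pre-incubated at pH 7.0-9.7 for 1-18 h at 37° C.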

[3] = HTP-analysis of supernatants pretreated with acid (MUGal hydrolysis); conditions: challenge at pH 4.2; activity of the variant/activity of WT GLA (SEQ ID NO: 5); yeast supernatant
Outline: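 Yeast INVSc1 supernatant, GLA variants; acid challenge: McIlvaine pH 3.3-4.3, 37° C., 1-3 h. Assay: MUGal in McIlvaine pH 4.8 plus citrate pH 4.3, 37° C., 30-180 min, Na2CO3 stop, Ex 355/Em 448 nm.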

| Molecule | Relative Activity of GLA Variants After No Challenge (NC) [1] | Relative Activity of GLA Variants After Challenge at pH 7.1 [2] | Relative Activity of GLA Variants After Challenge at pH 4.2 [3] |
| --- | --- | --- | --- |
| 77 (protein, Synthetic Polypeptide sequence of Variant No. 77 of mature Human GLA) LDNGLARTPTMGWLHWERFMCNLDCQEEPDSCISEKLFMEMAELMVSEGWKDAGYEYLCIDDCWMAPQRDSEGRLQADPQRFPHGIRQLANYVHSKGLKLGIYADVGNKTCAGFPGSFGYYDIDAQTFADWGVDLLKFDGCYCDSLENLADGYKHMSLALNRTGRSIVYSCEWPLYMWPFQKPNYTEIRQYCNHWRNFADIDDSWTSIKSILDWTSFNQERIVDVAGPGGWNDPDMLVIGNFGLSWNQQVTQMALWAIMAAPLFMSNDLRHISPQAKALLQDKDVIAINQDPLGKQGYQLRQGDNFEVWERPLSGLAWAVAMINRQEIGGPRSYTIAVASLGKGVACNPACFITQLLPSKRKLGFYEWTSRLRSHINPTGTVLLQLENTMQMSKDLLL | + (+ = 0.5 to 1.5 relative activity over WT GLA (SEQ ID NO: 5)) | + (+ = 0.5 to 1.5 relative activity over WT GLA (SEQ ID NO: 5)) | ++ (++ = >1.5 to 2.5 relative activity over WT GLA (SEQ ID NO: 5)) |
| 79 (protein, Synthetic Polypeptide sequence of Variant No. 79 of mature Human GLA) LDNGLARTPTMGWLHWERFMCNLDCQEEPDSCISEKLFMEMAELMVSEGWKDAGYEYLCIDDCWMAPQRDSEGRLQADPQRFPHGIRQLANYVHSKGLKLGIYADVGNKTCAGFPGSFGYYDIDAQTFADWGVDLLKFDGCYCDSLENLADGYKHMSLALNRTGRSIVYSCEWPLYMWPFQKPNYTEIRQYCNHWRNFADIDDSWKSIKSILDWTSFNQERIVDVAGPGGWNDPDMLVIGNFGLSWNQQVTQMALWAIMAAPLFMSNDLRHISPQAKALLQDKDVIAINQDPLGKQGYQLRQGDNFEVWERPLSGLAWAVAMINRQEIGGPRSYTIAVASLGGGVACNPACFITQLLPVKRKLGFYEWTSRLRSHINPTGTVLLQLENTMQMSKDLLL | ++ (++ = >1.5 to 2.5 relative activity over WT GLA (SEQ ID NO: 5)) | ++ (++ = >1.5 to 2.5 relative activity over WT GLA (SEQ ID NO: 5)) | ++ (++ = >1.5 to 2.5 relative activity over WT GLA (SEQ ID NO: 5)) |
| 78 (protein, Synthetic Polypeptide sequence of Variant No. 78 of mature Human GLA) LDNGLARTPTMGWLHWERFMCNLDCQEEPDSCISEKLFMEMAELMVSEGWKDAGYEYLCIDDCWMAPQRDSEGRLQADPQRFPHGIRQLANYVHSKGLKLGIYADVGNKTCAGFPGSFGYYDIDAQTFADWGVDLLKFDGCYCDSLENLADGYKHMSLALNRTGRSIVYSCEWPLYMWPFQKPNYTEIRQYCNHWRNFADIDDSWKSIKSILDWTSFNQERIVDVAGPGGWNDPDMLVIGNFGLSWNQQVTQMALWAIMAAPLFMSNDLRHISPQAKALLQDKDVIAINQDPLGKQGYQLRQGDNFEVWERPLSGLAWAVAMINRQEIGGPRSYTIAVASLGDGVACNPACFITQLLPVKRKLGFYEWTSRLRSHINPTGTVLLQLENTMQMSKDLLL | ++ (++ = >1.5 to 2.5 relative activity over WT GLA (SEQ ID NO: 5)) | ++ (++ = >1.5 to 2.5 relative activity over WT GLA (SEQ ID NO: 5)) | ++ (++ = >1.5 to 2.5 relative activity over WT GLA (SEQ ID NO: 5)) |
| 80 (protein, Synthetic Polypeptide sequence of Variant No. 80 of mature Human GLA) LDNGLARTPTMGWLHWERFMCNLDCQEEPDSCISEKLFMEMAELMVSEGWKDAGYEYLCIDDCWMAPQRDSEGRLQADPQRFPHGIRQLANYVHSKGLKLGIYADVGNKTCAGFPGSFGYYDIDAQTFADWGVDLLKFDGCYCDSLENLADGYKHMSLALNRTGRSIVYSCEWPLYMWPFQKPNYTEIRQYCNHWRNFADIDDSWKSIKSILDWTSFNQERIVDVAGPGGWNDPDMLVIGNFGLSWNQQVTQMALWAIMAAPLFMSNDLRHISPQAKALLQDKDVIAINQDPLGKQGYQLRQGDNFEVWERPLSGLAWAVAMINRQEIGGPRSYTIAVASLGKGVACNPACFITQLLPVKRQLGFYEWTSRLRSHINPTGTVLLQLENTMQMSKDLLL | + (+ = 0.5 to 1.5 relative activity over WT GLA (SEQ ID NO: 5)) | + (+ = 0.5 to 1.5 relative activity over WT GLA (SEQ ID NO: 5)) | + (+ = 0.5 to 1.5 relative activity over WT GLA (SEQ ID NO: 5)) |
| 82 (protein, Synthetic Polypeptide sequence of Variant No. 82 of mature Human GLA) LDNGLARTPTMGWLHWERFMCNLDCQEEPDSCISEDLFMEMAELMVSEGWKDAGYEYLCIDDCWMAPQRDSEGRLQADPQRFPHGIRQLANYVHSKGLKLGIYADVGNKTCAGFPGSFGYYDIDAQTFADWGVDLLKFDGCYCDSLENLADGYKHMSLALNRTGRSIVYSCEWPLYMWPFQKPNYTEIRQYCNHWRNFADIDDSWKSIKSILDWTSFNQERIVDVAGPGGWNDPDMLVIGNFGLSWNQQVTQMALWAIMAAPLFMSNDLRHISPQAKALLQDKDVIAINQDPLGKQGYQLRQGDNFEVWERPLSGLAWAVAMINRQEIGGPRSYTIAVASLGKGVACNPACFITQLLPVKRKLGFYEWTSRLRSHINPTGTVLLQLENTMQMSKDLLL | + (+ = 0.5 to 1.5 relative activity over WT GLA (SEQ ID NO: 5)) | + (+ = 0.5 to 1.5 relative activity over WT GLA (SEQ ID NO: 5)) | + (+ = 0.5 to 1.5 relative activity over WT GLA (SEQ ID NO: 5)) |
| 83 (protein, Synthetic Polypeptide sequence of Variant No. 83 of mature Human GLA) LDNGLARTPTMGWLHWERFMCNLDCQEEPDSCISEELFMEMAELMVSEGWKDAGYEYLCIDDCWMAPQRDSEGRLQADPQRFPHGIRQLANYVHSKGLKLGIYADVGNKTCAGFPGSFGYYDIDAQTFADWGVDLLKFDGCYCDSLENLADGYKHMSLALNRTGRSIVYSCEWPLYMWPFQKPNYTEIRQYCNHWRNFADIDDSWKSIKSILDWTSFNQERIVDVAGPGGWNDPDMLVIGNFGLSWNQQVTQMALWAIMAAPLFMSNDLRHISPQAKALLQDKDVIAINQDPLGKQGYQLRQGDNFEVWERPLSGLAWAVAMINRQEIGGPRSYTIAVASLGKGVACNPACFITQLLPVKRKLGFYEWTSRLRSHINPTGTVLLQLENTMQMSKDLLL | + (+ = 0.5 to 1.5 relative activity over WT GLA (SEQ ID NO: 5)) | + (+ = 0.5 to 1.5 relative activity over WT GLA (SEQ ID NO: 5)) | ++ (++ = >1.5 to 2.5 relative activity over WT GLA (SEQ ID NO: 5)) |
| 85 (protein, Synthetic Polypeptide sequence of Variant No. 85 of mature Human GLA) LDNGLARTPTMGWLHWERFMCNLDCQEEPDSCISEKLFMEMAELMVSEGWKDAGYEYLCIDDCWMAPQRDSEGRLQADPQRFPHGIRQLANYVHSKGLKLGIYADVGNKTCAGFPGSFGYYDIDAQTFADWGVDLLKFDGCYCDSLENLADGYKHMSLALNRTGRSIVYSCEWPLYMWPFQKPNYTEIRQYCNHWRNFADIDDSWKSIKSILDWTSFNQERIVDVAGPGGWNDPDMLVIGNFGLSWNQQVTQMALWAIMAAPLFMSNDLRHISPQAKALLQDKDVIAINQDPLGKQGYQLRQGDNFEVWERPLSGLAWAVAMINRQEIGGPRSYTIAVASLGKGVACNPACFITQLLPVKRKLGFYEWTSRLRSHINPTGTVLLQLENTMQMSKGLLL | + (+ = 0.5 to 1.5 relative activity over WT GLA (SEQ ID NO: 5)) | + (+ = 0.5 to 1.5 relative activity over WT GLA (SEQ ID NO: 5)) | + (+ = 0.5 to 1.5 relative activity over WT GLA (SEQ ID NO: 5)) |
| 81 (protein, Synthetic Polypeptide sequence of Variant No. 81 of mature Human GLA) LDNGLARTPTMGWLHWERFMCNLDCQEEPDSCISEKLFMEMAELMVSEGWKDAGYEYLCIDDCWMAPQRDSEGRLQADPQRFPHGIRQLANYVHSKGLKLGIYADVGNKTCAGFPGSFGYYDIDAQTFADWGVDLLKFDGCYCDSLENLADGYKHMSLALNRTGRSIVYSCEWPLYMWPFQKPNYTEIRQYCNHWRNFADIDDSWKSIKSILDWTSFNQERIVDVAGPGGWNDPDMLVIGNFGLSWNQQVTQMALWAIMAAPLFMSNDLRHISPQAKALLQDKDVIAINQDPLGKQGYQLRQGDNFEVWERPLSGLAWAVAMINRQEIGGPRSYTIAVASLGKGVACNPACFITQLLPVKRRLGFYEWTSRLRSHINPTGTVLLQLENTMQMSKDLLL | + (+ = 0.5 to 1.5 relative activity over WT GLA (SEQ ID NO: 5)) | + (+ = 0.5 to 1.5 relative activity over WT GLA (SEQ ID NO: 5)) | + (+ = 0.5 to 1.5 relative activity over WT GLA (SEQ ID NO: 5)) |

From patent US11278600B2, “Human alpha-galactosidase variants” (Codexis, Inc., priority 2014, dated 2022)
